Laboratory results as given in US20200216558A1 (US Dept. of Health and Human Services, published 2020).

Tests used:
[1] = target: T1, recombinant GPC2-hFc fusion protein (human, UniProt Q8N158 24-553); test: monoclonal phage ELISA, coated GPC2-hFc vs BSA
T1 construct: range 24-553; Made in 293T cells with an IL-2 secretion signal (not part of the secreted protein); biotinylated for the Octet assay; also called GPC2 protein; recombinant human GPC2; not shown: human IgG Fc (hFc) at the C terminus
T1 sequence (looked up): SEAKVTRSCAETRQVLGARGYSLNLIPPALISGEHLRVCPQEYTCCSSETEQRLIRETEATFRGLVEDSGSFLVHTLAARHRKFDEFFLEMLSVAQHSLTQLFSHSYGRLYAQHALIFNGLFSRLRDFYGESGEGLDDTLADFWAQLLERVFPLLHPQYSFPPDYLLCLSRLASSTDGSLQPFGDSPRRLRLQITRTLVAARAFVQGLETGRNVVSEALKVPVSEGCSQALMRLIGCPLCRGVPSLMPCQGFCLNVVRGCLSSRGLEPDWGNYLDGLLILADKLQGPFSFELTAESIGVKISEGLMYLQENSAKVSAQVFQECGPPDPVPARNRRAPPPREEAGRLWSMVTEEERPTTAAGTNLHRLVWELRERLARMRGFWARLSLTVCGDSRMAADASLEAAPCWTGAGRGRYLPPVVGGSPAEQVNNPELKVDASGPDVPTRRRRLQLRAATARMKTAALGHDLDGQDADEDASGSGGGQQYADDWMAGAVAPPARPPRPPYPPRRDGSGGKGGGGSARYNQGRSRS

recombinant human GPC1 = target: T2, recombinant human GPC1 (human, UniProt P35052 24-530, limits assumed); test: monoclonal phage ELISA on recombinant glypicans
T2 sequence (looked up): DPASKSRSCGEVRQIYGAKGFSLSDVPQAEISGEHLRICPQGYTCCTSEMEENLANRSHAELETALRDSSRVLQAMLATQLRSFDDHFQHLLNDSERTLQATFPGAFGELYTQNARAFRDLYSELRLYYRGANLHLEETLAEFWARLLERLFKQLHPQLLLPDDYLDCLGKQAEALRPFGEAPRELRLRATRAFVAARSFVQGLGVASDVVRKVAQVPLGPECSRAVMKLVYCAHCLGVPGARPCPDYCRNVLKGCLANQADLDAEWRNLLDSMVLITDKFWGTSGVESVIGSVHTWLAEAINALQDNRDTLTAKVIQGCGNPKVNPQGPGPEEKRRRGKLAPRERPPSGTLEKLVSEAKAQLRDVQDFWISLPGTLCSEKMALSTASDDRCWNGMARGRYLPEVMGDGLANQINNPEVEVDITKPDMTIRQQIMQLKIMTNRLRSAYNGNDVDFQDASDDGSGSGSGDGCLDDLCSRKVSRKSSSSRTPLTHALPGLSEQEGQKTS
Description: (§1) Both plate and phage were blocked with 3% skim milk in PBS/0.05% Tween-20 for 1 hour at room temperature. Then pre-blocked phage supernatant was added to the plate. Binding was detected by HRP-conjugated mouse anti-M13 antibody (GE Healthcare).

recombinant mouse GPC2 = target: T3, recombinant mouse GPC2 (mouse, UniProt Q8BKV1 22-556, limits assumed); test: monoclonal phage ELISA on recombinant glypicans
T3 sequence (looked up): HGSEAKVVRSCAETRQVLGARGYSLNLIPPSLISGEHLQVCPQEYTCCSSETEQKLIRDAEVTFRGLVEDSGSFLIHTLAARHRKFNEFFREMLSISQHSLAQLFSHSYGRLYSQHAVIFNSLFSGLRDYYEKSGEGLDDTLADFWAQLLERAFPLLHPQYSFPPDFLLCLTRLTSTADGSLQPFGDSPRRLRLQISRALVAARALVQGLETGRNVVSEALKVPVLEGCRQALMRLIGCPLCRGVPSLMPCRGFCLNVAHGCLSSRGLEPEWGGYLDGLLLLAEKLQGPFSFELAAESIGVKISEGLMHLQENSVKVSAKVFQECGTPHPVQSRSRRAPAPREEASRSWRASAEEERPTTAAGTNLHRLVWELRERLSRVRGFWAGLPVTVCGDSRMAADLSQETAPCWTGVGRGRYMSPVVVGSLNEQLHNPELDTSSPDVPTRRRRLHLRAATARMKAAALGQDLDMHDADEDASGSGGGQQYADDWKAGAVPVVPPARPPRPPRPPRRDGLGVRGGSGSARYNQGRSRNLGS
Description: as §1

recombinant human GPC3 = recombinant human GPC3 (human, UniProt P51654 25-559, limits assumed); test: monoclonal phage ELISA on recombinant glypicans
Sequence of recombinant human GPC3 (P51654 25-559 limits assumed): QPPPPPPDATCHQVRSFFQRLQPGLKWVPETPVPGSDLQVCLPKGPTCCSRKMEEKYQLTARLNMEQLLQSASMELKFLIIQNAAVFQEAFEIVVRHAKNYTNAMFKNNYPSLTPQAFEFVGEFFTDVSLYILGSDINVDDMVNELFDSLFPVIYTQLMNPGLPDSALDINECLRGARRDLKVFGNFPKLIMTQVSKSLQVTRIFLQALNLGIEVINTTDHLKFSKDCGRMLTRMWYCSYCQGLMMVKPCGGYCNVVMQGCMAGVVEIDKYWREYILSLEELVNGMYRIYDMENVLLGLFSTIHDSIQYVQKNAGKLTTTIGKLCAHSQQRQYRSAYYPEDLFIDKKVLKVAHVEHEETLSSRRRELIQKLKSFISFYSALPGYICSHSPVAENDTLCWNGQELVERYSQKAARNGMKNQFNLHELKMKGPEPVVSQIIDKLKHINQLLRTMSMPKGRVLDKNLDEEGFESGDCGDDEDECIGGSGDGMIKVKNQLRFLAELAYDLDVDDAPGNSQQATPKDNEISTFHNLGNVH
Description: as §1

[2] = target: T1, recombinant GPC2-hFc fusion protein; test: Octet RED96 BLI, biotinylated GPC2-hFc on streptavidin biosensors, 30 °C
Description: (§2) Briefly, all experiments were performed at 30° C. and reagents were prepared in 0.1% BSA, 0.1% Tween20 PBS, pH 7.4 buffer. […] Data analysis was performed using the Fort\tilde{e}Bio analysis software provided with the instrument.

[3] = target: T1, recombinant GPC2-hFc fusion protein; test: Octet RED96 biolayer interferometry, biotinylated GPC2-hFc on streptavidin biosensors, LH7 at 1000, 500 and 100 nM
Description: as §2

[4] = target: T1, recombinant GPC2-hFc fusion protein; test: ELISA on coated GPC2-hFc, detection with anti-Pseudomonas exotoxin A antibody and HRP secondary
[5] = target: T1, recombinant GPC2-hFc fusion protein; test: ELISA, coated GPC2-hFc, detection with anti-Pseudomonas exotoxin A antibody
Description: Then a series of diluted immunotoxins were added to each well. Anti-Pseudomonas exotoxin A antibody (Sigma-Aldrich) and HRP-conjugated secondary antibody (Jackson Immunoresearch) were used to detect binding. EC₅₀ values were determined by Prism 6.0 software (GraphPad).

Binder	fold OD450 nm on GPC2-hFc over BSA [1] [fold]	binding result (recombinant human GPC1)	binding result (recombinant mouse GPC2)	binding result (recombinant human GPC3)	EC50 [4] [µM]	also measured
VH single domain antibody LH3 (phage clone) (VHH, Human VH single domain) VHH: QVQLVQSGGGLVQPGGSLRLSCAASSFSFADYEMSWVRQAPGKALEWIGRIYTSGSTNYNPSLKSRVTISRDNSKNTLYLQMNTLRAEDTATYYCARGYSGYDGSHYFDYWGQGTLVTVSS	≥ 5	binds	binds			
VH single domain antibody LH4 (phage clone) (VHH, Human VH single domain) VHH: QVQLVQSGGGLVQPGGSLRLSCAASSFYFDDYEMSWVRQAPGKALEWIGRIYTSGSTNYNPSLKSRVTISRDNSKNTLYLQMNTLRAEDTATYYCARGYCSGGSCYFDYWGQGTLVTVSS	≥ 5	no binding	binds	no binding		
VH single domain antibody LH6 (phage clone) (VHH, Human VH single domain) VHH: QVQLVQSGGGLVQPGGSLRLSCAASDFYFDDYEMSWVRQAPGKGLEWVSTISGSGGGTYYADSVKGRFTISRDNSKNTLYLQMNTLRAEDTATYYCARGYSYDDSRYFDYWGQGTLVTVSS	≥ 5	no binding	binds	no binding		
LH7-Fc fusion protein (Fc fusion, Soluble LH7 as used in Octet, flow cytometry and HEK293 Supertopflash assays; also called LH7 antibody; LH7 single domain antibody; not shown: Fc: antibodies were fused with either human Fc (hFc) or mouse IgG Fc (mFc); which one was used in this assay, its subcla) QVQLVQSGGGLVQPGGSLRLSCAASDFYFYDYEMSWVRQAPGKGLEWIGTVSYSGSTYYNPSLKSRVTISRDNSKNTLYLQMNTLRAEDTAMYYCARGYSYDDSRYFDYWGQGTLVTVSS						Kd [2]: 0.0098 µM; koff [3]: 0.00052 s⁻¹; kon [3]: 53100 M⁻¹ s⁻¹
LH1-PE38 (other, One of the three immunotoxins of group m11; also called LH1-PE38 immunotoxin) VH: QVQLVQSGGGLVQPGGSLRLSCAASDFDFAAYEMSWVRQAPGKGLEWIGEINHSGSTTYNPSLKSRVTISRDNSKNTLYLQMNTLRAEDTAVYYCATAVHYYDSSGYYHDAFDIWGQGTLVTVSS					0.00455	EC50 (read off the curve) [4]: ~0.2 mg/L
LH4-PE38 (other, One of the three immunotoxins of group m11; also called LH4-PE38 immunotoxin) VH: QVQLVQSGGGLVQPGGSLRLSCAASSFYFDDYEMSWVRQAPGKALEWIGRIYTSGSTNYNPSLKSRVTISRDNSKNTLYLQMNTLRAEDTATYYCARGYCSGGSCYFDYWGQGTLVTVSS					0.0439	
LH7-PE38 monomeric immunotoxin (other) VH: QVQLVQSGGGLVQPGGSLRLSCAASDFYFYDYEMSWVRQAPGKGLEWIGTVSYSGSTYYNPSLKSRVTISRDNSKNTLYLQMNTLRAEDTAMYYCARGYSYDDSRYFDYWGQGTLVTVSS					0.0184	EC50 [5]: 0.018 µM; EC50 (read off the curve) [4]: ~1 mg/L
VH single domain antibody LH1 (phage clone) (VHH, Human VH single domain (not camelid)) VHH: QVQLVQSGGGLVQPGGSLRLSCAASDFDFAAYEMSWVRQAPGKGLEWIGEINHSGSTTYNPSLKSRVTISRDNSKNTLYLQMNTLRAEDTAVYYCATAVHYYDSSGYYHDAFDIWGQGTLVTVSS	≥ 5	no binding	no binding	no binding		
VH single domain antibody LH2 (phage clone) (VHH, Human VH single domain) VHH: QVQLVQSGGGLVQPGGSLRLSCAASDFYFYSYEVSWVRQAPGKALEWIGYIYYSGSTTYNPSLKSRVTISRDNSKNTLYLQMNTLRAEDTAIYYCAVRDNWNDVDYWGQGTLVTVSS	≥ 5	no binding	no binding	no binding		
VH single domain antibody LH7 (phage clone) (VHH, Human VH single domain) VHH: QVQLVQSGGGLVQPGGSLRLSCAASDFYFYDYEMSWVRQAPGKGLEWIGTVSYSGSTYYNPSLKSRVTISRDNSKNTLYLQMNTLRAEDTAMYYCARGYSYDDSRYFDYWGQGTLVTVSS	≥ 5	no binding	no binding	no binding		
